We go through 17 sequences from the DeepSol protein solubility set.

The series is described as follows: soluble on expression in E. coli; label from the status in PepcDB or PDB records.
In the case of “SGGCTALVAVSLQGKLYMANAGDSRAILVRRDEIRPLSFEFTPETERQRIQQLAFVYPELLAGEFTRLEFPRRLKGDDLGQKVLFRDHHMSGWSYKRVEKSDLKYPLIHGQGRQARLLGTLAVSRGLGDHQLRVLDTNIQLKPFLLSVPQVTVLDVDQLELQEDDVVVMATDGLWDVLSNEQVAWLVRSFLPGNQEDPHRFSKLAQMLIHSTQGKEDSLTEEGQVSYDDVSVFVIPLHSQGQESSDH”, the “soluble on expression in E. coli” value is reported as “soluble”.

Take “MNKIFIYAGVRNHNSKTLEYTKRLSSIISSRNNVDISFRTPFNSELEISNSDSEELFKKGIDRQSNADDGGVIKKELLESDIIIISSPVYLQNVSVDTKNFIERIGGWSHLFRLAGKFVVTLDVAESNGSDNVSEYLRDIFSYMGGQILHQVSITNSLKDIAEAQLMEATYKIEDVLEGKIKYKTTDYQERAYQTLKLILENYDSEHFEKMYWEKKRLFEANSLEEWYYVENIKLEHHHHHH”: the “soluble on expression in E. coli” value is on record as “soluble”. For the sequence “MLASFLKLKTYCEQEGFKGWDPYDGLNSKVFRALPLLKQSALCRLIVIQGFKRSPINLRRLALVPKEYNAKGIGLFLQGYCNLYRLVERNPQLTKELGSREELLEQVKKLADLLLELRSPGDYSGACWGYNFDWQARRLFLFPKYTPTVVATNFCATALMEAYEVTRQQEYLDVALSAAQFVIKDLHRTAYRDGFLFSYSPLDGNDTVFNASLLGARLLSYCYHYTKDEAYRTLARQTISACCAAQAEDGSWVYGMLPVQSWIDSFHTGYNLDALIAYQELTGDISFAENIERGLSYYLEHFFEADGMPKYYHDRTYPIDIHCPGQLFVSLARLHRYDEHRELVDRVMAWTISSMQDKKGYFYYQMKPGLSSKIPYMRWSNAFMFCAMSYYLINYKEISGGDFSNDQ”, the “soluble on expression in E. coli” value is given as “not soluble”.

In the case of “MPSKTFLLTHTFKDISKLGEGESYYSDIEIRYNIPWSIQVFKNESFLGLLLNCEKEELLEKKKWSLQVKFTMKLVAVSGKFFQRTVKNEFQNPEGHGMDKFISWENMLRDYVNNDSIVIEINADIVSSSGFFKHKYSPCSQSYSGKSFVLKHNFKNRRFVEAERCFSDIEEHYNVPWRLRIQKYKKGFLGIHLLCEKETCDGRSWSIQCDYELQLISSKGKCYSRHSTFNFEKPGGNYQEVEFINWKVMEEEYMDSDSICVEAHVKICKTQELPCNILSTHRKFVLSHTVRNISSINGGNVYFTDIETRFNVPWKLSFVRQSGFIELYLRCEKKQCLSRTWSIEAEFTLKLVSPHGRSLSLRKIYSFEKSIGNGYSKVMRWDEMKDKYVVDNSIIIEAHVKILNMTGIESETTIKKTSGFTIPVGDMEYSMEKWMEMAFDH”, the “soluble on expression in E. coli” value is listed as “not soluble”. “KLMKVNHAADAAEEGLVSDPLEWTGVRIGPGINGTIAQLPTLAGEEIIATRVVHSKTFHSLAAPNDRLHEGMVLVIHGTPDALERAIAKVGKQQDVPIEDTDLVYSRFTVSSKAVVGRKISDLDTVRSGFIISRLRRGDADVVPEPDDVLHYSDRVRVIAPANRMSEVRRFLGDSERSLADVD”: the “soluble on expression in E. coli” value is reported as “not soluble”. In the case of “MSQDPFALLKAEVDLLGRLLGEAIRTLSGERFFALVEEVRALAKARRQGDEAAGEALLARVEGLSTEEAEALVRAFTHYFHLVNLAEERHRVRVNRLRAQAETLESPRPEGFLALAKALKERGLSLEEAEAHLNRLELLLTFTAHPTETRRRTLRHHLEALQRELEAGDRERLAARVALLYGTEEVRKARPTVEDEIKGGLYYLPTTLWEAVPRVVAGLEAALERVYGRRPRLKSPVRFRSWIGGDRDGNPFVTPEVTAFAGRYAREVARRRFLEALEDLVRDLSLAEARVPVPREVRERGEGVERFMGEPYRRYFAALYRALEREEATTEGLLAALKAAERGLREVGLGRVAEAFLDPLEARLSAFGLELAPLDLREESGRLLEAAAELLRVGGVHPDFLALPQEERERLLTEELKTARPLLPVGEAPEGEALRVALGALKAWRDKGAHVVSMTHHPEDLLAVFLLAREVGLYRPGRPLPFDVVPLFETLEDLRRAPGVLRRLLENPVFLAHARGRGGVEVMIGYSDSNKDAGFLMANLALYEAQEALSRVGEEVGLPVYFFHGRGTSTARGGGPAGRAIASLPPRSVGRRIRLTEQGEALADRYSHPDLAVRHLEQMLYHFALAALGPGQEPEARWREALAQAAEESTRRYRALLQEEGFFDFFEAFTPIREIGELPIASRPVYRRGRVRDIRDLRAIPWVMAWTQVRVLLPGWYGLSALEELPLDLLREMYRGWPFFASTLEAAAMALAKADMGVARLYLRLVPEPLRFFYRRLAEEHARTVALLEAVFQAPLLHNQRTLERQIRLRNPYVDPINIVQVELLRRYRAPGGKEDEALRRALLLSILGVAAGLRNAG” it was “soluble”; in that of “MAHHHHHHMILPRYAYAHADMDQKQMQKLLLMGPGGAGKTCMRSIIFDNYLPRDALRLGITISLDQSQVHILRNLFLNLWDCGGQHRYVTEYLNRQKEYIFRYVGVMLFVFDINSMCRDSHGGIGGLGGVGGESSSATTDWKLPEMLEYFREAMRFIRQYSPKAKVFVLLHKIDLIHKDIREEIFQARKQEILNCIDSDNGMNIEFFGTSIWSDSLYLAYSSVVRSLVPHRDVLVEMMRGIAMACDAAEVALYERSTFLCLTHINRKAAADGSKALFLQGDGELRTTEVSETVKHFKLSCMNNTTSLGGLSITTETFTALLCPFTECTHVLVVSVDPKVNVELHRLNVNAARRRFEQFLDSDEPTACAMREVL”, “not soluble”. With “MGSDKIHHHHHHMESHVNILKSDVKIDPSRSPFMKERVEVMYEGDDLESILEQVKEIELGEMTFKVIFVKINDLEGENKIEYAERRIIERRIGDCIDAEADVRNPERTFGIVPLGGRWYFGHYVESKPVWYHHIKKPRSYSTSLSTRVARSVANIAVPNPEGVRAIDPCCGIGTVVVEALSMGINIVGRDISPLVAIGARENIAHFGFDGTITKGPIEEITENYDVAIIDMPYDLFTHATPENQLSILSSARRIAKKVVVVTMETMDDMIHEAGFEIIDRCTTKKGTFSRQILVCE” the entry was “not soluble”; with “GSHMASMTGGQQMGRGSGSHMASMTGGQQMGRGSRVGEQSQAGDPGLVSAYGPGLEGGTTGVSSEFIVNTLNAGSGALSVTIDGPSKVQLDCRECPEGHVVTYTPMAPGNYLIAIKYGGPQHIVGSPFKAKVTGPRLS”, “soluble”.

Take “MGSDKIHHHHHHMMDRAAIRQQARFELARRDFFYYCHLMASDFYKPSRRYLVELCNDLQGFLSDNEHNVLVINEPPRHGKSRTAGMFVQWLLGNDNDKKIMTGSYNETLSTVFSKNVRNAIQETKADEDVVVFNDIFPDTHIKYGDAAMNLWSLEGGYNNYLATSPTGTATGFGADIIIVDDLIKNAEEANNATVLEKHWEWFTNTMLSRLEEGGKIIIIMTRWHSQDLAGKALIELPKSDYKVKHISMKAYDEATDTMLCDEVLSKQAYLQKTKTMGADIASANYQQEPIDIKGRLYSGFKTYVDKPTFKRISAYTDTADTGKDYLASYIYGVTMDNEAYILDVVFTKEPMEVTEPLLAQKLAEWQVNTCDIESNNGGRGFARNVERLTQDSYQNRYTVFNWFHQSQNKQARILTNTTWAIEHIYFPENWRHRWSELYQNLMSYQREGKNAHDDAADALTGVVEAINDKIRTKAKVKRKSLYGL”: the “soluble on expression in E. coli” value was “not soluble”. In the case of “MAHHHHHHMEDVGGKANCQIEPERKEAVIDTSNWPLLLKNYDKLNVRSSHFTPLPMGNSPYSRNLEEYLKYGIINLDKPSNPSSHEVVSWIRKILRCEKTGHSGTLDPKVTGVLLVCLNRATRLVKSQQESGKEYVCVCKFHSKPKSLEEVKLVLNNFHGAIFQRPPLICAVKRQLRVRTIYDSKLLDFDDANNVCVFWVKCQAGTYIRTLCEHIGLLLGVGAHMQELRRVKSGNMTEYDNMCTLHDILDAQHVYDTTGDESYLRKIITPLEKLLINFPRIVIKDSAVNAICYGAKLTIPGVLRFDNNIDVNSEVVLMTTKGEAVALAIAQMTSSVIATVDHGVVSLTKRVIMDRDTYDVKWGYGTRSMEKKKLILAGLLDKYGKPNEKTPLSWIKSEGYVPKLVGDTAIYTLNTDDGNNNEVPENGKNVVGENNNPVGGSSAFNLSEGENKKKKDGEGAEENDNNAGEQSDSGVVKKKRKKN” it was “not soluble”; in that of “MGSDKIHHHHHHLQVSEMEMLITLSEELNMRRAAERLFVSQPALSQRLVAIERRWATKLFIRSSRGLSITPQGEKVIGLAKEMNRKELELKSELTAEEGAVYGTLRIAVASIMGQYWLPRVLKRFVERYPHVRVQLVTGWSSEMMRHMLEEHFHIGIIRGNPDWKGVKERLFSDPLYLVDSELTSLEQLRKTERPFIQFKSDSTYYQEILEWWQDRFSSPPARTLVVDQIETCKQMALHGIGFAILPESTIHEASEVMQIPLKTSSGKILKRDTWILSTESMLELKQVQAFWDIVKEEGGSQSDGIRN”, “not soluble”.

As to “MDFPPTKLDYHVDMFNLQSHSRFLSLFKAQDGRIALILESTVFHPQGGGQPSDTGLIVFSGSDLKFSVQDVLHYGVFEGSNPESGIDSEKGKEVYLTVDESRRKLNSRQAVEDCSHCYAWHGWNKISDVWLHSAGHLLDMCMQKVGLGHLEPGKGYHFPDGPFVEYKGSVPQEEFQVKQKELEAEANELISKGGKVYAAILPYEEASVLCGGSLPDYISKGSTPRIIKLGDSPGCPCGGTHVSNLSDIISMKITQMRTKKGMTKVFYTIAS”, the “soluble on expression in E. coli” value is given as “soluble”. In the case of “HNPLYTAHELESPFQDHGARVAIVWDKAADTLEKLRRNTPLETIVSVNMMTAMPAVQQALLRLPIPMIRKKRDALTASAPNTIPWEILVGSALGGNGDDIVPCPEVTKKSIALILYTSGTTGTPKGAQLSHGNLFANIMQGKAWVKGIGDQDER” it was “not soluble”; in that of “NQLSGLHSMEEQLAKKLQIKKCLVVQGDSDDTPWVREEMGRVAVEQLDMALTEKRNIVAVMGGSTMATVAEMMTTDFAKGRELLFVPGRGGIGEDLDNQANTICDKMATKTNTKHRVLYVPEQLGEEAYRSLLKEPAIQEGLRLVQSANAIILGIGDALAMAKRRHTGEDVLEKIIRRKAVGEAFGYYFDEQGEVVHKVPTFGLQFEDLAQIPHIIAVAGGTSKAKAIKSYMKSAPKNTILITDEGAAKSLLK”, “soluble”. “GLSDRYQRVKKLGSGAYGEVLLCKDKLTGAERAIKIIKKSSVTTTSNSGALLDEVAVLKQLDHPNIMKLYEFFEDKRNYYLVMEVYRGGELFDEIILRQKFSEVDAAVIMKQVLSGTTYLHKHNIVHRDLKPENLLLESKSRDALIKIVDFGLSAHFEVGGKMKERLGTAYYIAPEVLRKKYDEKCDVWSCGVILYILLCGYPPFGGQTDQEILKRVEKGKFSFDPPDWTQVSDEAKQLVKLMLTYEPSKRISAEEALNHPWIVKFCSQKHTDVGKHALTGALGNMKKFQSSQKLAQAAMLFMGSKLTTLEETKELTQIFRQLDNNGDGQLDRKELIEGYRKLMQWKGDTVSDLDSSQIEAEVDHILQSVDFDRNGYIEYSEFVTVCMDKQLLLSRERLLAAFQQFDSDGSGKITNEELGRLFGVTEVDDETWHQVLQECDKNNDGEVDFEEFVEMMQKICDVKVKH”: the “soluble on expression in E. coli” value is listed as “soluble”. On to “MVDRVIEMAIQQQPMTEPVGIPVIILKEGTQRSYGREALRANIMAVRAIAQILKTTYGPKGMDKMLVDSLGDITITNNGATILDKMDVAHPAAKMLVQISKGQEDEAGDGTKTTVIFAGELLKEAEKLLDINIHPTIIVEGYKEALRKASEVIESIAEPVSYDDVEKLKLIAKTSLNSKAVAEARDYFAELAVEAVRTVAERRGDRWYVDLNNIQIVKKHGGSLRDTRLVRGIVLDKEVVHPDMPRRVENARIALLDTPLEIEKPEIDLEISITSPEQIKALYEKQERILQEKIEKIAATGANVVITQKGIDDVAQHFLAKKGILAVRRVKRSDIEKIARATGARIVTDIEDLRPEDLGYAELVEERKVGEDKMVFIEGAKNPKSVTILLRGGFERLVDEAERSLHDALSVVADAIMDGKIVAGGGAVEAEVAKVLYEYASKLPGKTQLAVEAFARAVEALPQALAHNAGHDPIEVLVKLRSAHEKPENKWYGVDLDTGEIVDMWSRGVLEPMRVKLNALKAATEVASLILRIDDVIAARKEEEEKEEKRGGEEE”, for which the “soluble on expression in E. coli” value is “soluble”.
